Experiment [1] deals with human CCL2 (MCP1) - wild type (wt) (human) (UniProt P13500). Briefly: cell-based or functional assay.
For experiment [2], the target named is monomeric Fcγ receptor FcγRIIIa (human) (UniProt P08637). As to the kind of experiment: SPR T200, Protein L capture, FcγR at 5 µg/ml, 25 C, pH 7.4.
Experiment [3] deals with monomeric Fcγ receptor FcγRIIa (human) (UniProt P12318). Described as above.
Experiment [4] concerns the target monomeric Fcγ receptor FcγRIIb (human) (UniProt P31994). Described as above.
The target of experiment [5] is biotinylated human single chain FcRn (human) (UniProt P55899). As to the kind of experiment: SPR Biacore 8K, sc huFcRn on SA chip, 50 nM antibody, 25 C, pH 6.
biotinylated human single chain FcRn (human), sequence (P55899 24-297 limits assumed, chain 1 of 2): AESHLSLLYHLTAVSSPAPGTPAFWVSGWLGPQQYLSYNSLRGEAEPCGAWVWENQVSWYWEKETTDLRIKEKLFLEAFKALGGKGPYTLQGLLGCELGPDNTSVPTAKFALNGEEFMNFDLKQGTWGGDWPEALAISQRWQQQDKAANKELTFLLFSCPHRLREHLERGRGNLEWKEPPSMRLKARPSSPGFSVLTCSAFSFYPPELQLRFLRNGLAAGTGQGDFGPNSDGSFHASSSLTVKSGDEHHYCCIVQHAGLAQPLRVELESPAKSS
biotinylated human single chain FcRn (human), sequence (chain, as listed by the source limits assumed, chain 2 of 2): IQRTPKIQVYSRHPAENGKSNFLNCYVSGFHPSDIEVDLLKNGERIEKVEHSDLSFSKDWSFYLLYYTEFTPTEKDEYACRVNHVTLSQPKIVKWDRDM
Experiment [6] shares this target. Briefly: SPR Biacore 8K, sc huFcRn on SA chip, 50 nM antibody, 25 C, pH 7.4. On the technique in general: Surface plasmon resonance follows binding to a sensor surface in real time, without labels.
For experiment [7] the target is unchanged. Briefly: SPR Biacore 8K, sc huFcRn on SA chip, 50 nM antibody, 25 C, pH 5.

monomeric Fcγ receptor FcγRIIa (human), sequence (P12318 34-217 limits assumed): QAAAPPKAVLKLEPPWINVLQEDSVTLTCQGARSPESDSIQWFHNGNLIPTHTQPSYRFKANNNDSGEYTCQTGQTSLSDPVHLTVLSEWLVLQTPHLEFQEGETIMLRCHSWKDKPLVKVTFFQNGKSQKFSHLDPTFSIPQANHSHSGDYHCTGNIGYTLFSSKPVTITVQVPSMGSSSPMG
monomeric Fcγ receptor FcγRIIIa (human), sequence (P08637 17-208 limits assumed): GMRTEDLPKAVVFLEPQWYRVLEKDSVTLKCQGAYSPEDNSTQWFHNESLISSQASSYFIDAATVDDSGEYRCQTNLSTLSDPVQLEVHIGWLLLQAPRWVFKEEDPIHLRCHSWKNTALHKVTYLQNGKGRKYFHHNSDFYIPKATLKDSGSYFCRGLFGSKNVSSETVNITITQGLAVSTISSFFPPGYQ
monomeric Fcγ receptor FcγRIIb (human), sequence (P31994 43-217 limits assumed): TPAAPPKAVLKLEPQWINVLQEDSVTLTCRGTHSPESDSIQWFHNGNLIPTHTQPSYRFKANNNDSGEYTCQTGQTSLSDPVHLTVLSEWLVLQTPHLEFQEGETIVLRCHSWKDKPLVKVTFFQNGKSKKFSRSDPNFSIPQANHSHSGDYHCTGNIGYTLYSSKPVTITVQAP

For “human CCL2/JE/MCP-1 Antibody (R&D Systems Cat #MAB279)”, in experiment [1], the THP1 chemotaxis [fold change compared to IgG control] stood at 3.7 fold.
CNTO888 (antibody): the binding amounts of hFcγRs (RU) per 1 RU Ab came to 0.001 RU per RU in experiment [2], 0.003 RU per RU in experiment [3] and 0 RU per RU in experiment [4]. Further, the Binding amount of Ab (RU) per 1RU of FcRn-surface was 0.35 RU per RU in experiment [5], 0 RU per RU in experiment [6] and 0.9 RU per RU in experiment [7].

The values above are taken from patent publication US20240360208A1.
